The target in the experiment is T1, mouse Factor H (FH from mouse, MyBiosource) (mouse, UniProt P06909 19-1234).
T1 construct: Bought protein, coated on microtiter wells; also called mouse FH
Put plainly: quantitative ELISA, mouse FH coated, GST-tagged protein (0.03125-2 µM) detected with anti-GST. (In general: An ELISA detects its analyte on a solid surface through an enzyme-linked reagent.)

T1 sequence (P06909 19-1234): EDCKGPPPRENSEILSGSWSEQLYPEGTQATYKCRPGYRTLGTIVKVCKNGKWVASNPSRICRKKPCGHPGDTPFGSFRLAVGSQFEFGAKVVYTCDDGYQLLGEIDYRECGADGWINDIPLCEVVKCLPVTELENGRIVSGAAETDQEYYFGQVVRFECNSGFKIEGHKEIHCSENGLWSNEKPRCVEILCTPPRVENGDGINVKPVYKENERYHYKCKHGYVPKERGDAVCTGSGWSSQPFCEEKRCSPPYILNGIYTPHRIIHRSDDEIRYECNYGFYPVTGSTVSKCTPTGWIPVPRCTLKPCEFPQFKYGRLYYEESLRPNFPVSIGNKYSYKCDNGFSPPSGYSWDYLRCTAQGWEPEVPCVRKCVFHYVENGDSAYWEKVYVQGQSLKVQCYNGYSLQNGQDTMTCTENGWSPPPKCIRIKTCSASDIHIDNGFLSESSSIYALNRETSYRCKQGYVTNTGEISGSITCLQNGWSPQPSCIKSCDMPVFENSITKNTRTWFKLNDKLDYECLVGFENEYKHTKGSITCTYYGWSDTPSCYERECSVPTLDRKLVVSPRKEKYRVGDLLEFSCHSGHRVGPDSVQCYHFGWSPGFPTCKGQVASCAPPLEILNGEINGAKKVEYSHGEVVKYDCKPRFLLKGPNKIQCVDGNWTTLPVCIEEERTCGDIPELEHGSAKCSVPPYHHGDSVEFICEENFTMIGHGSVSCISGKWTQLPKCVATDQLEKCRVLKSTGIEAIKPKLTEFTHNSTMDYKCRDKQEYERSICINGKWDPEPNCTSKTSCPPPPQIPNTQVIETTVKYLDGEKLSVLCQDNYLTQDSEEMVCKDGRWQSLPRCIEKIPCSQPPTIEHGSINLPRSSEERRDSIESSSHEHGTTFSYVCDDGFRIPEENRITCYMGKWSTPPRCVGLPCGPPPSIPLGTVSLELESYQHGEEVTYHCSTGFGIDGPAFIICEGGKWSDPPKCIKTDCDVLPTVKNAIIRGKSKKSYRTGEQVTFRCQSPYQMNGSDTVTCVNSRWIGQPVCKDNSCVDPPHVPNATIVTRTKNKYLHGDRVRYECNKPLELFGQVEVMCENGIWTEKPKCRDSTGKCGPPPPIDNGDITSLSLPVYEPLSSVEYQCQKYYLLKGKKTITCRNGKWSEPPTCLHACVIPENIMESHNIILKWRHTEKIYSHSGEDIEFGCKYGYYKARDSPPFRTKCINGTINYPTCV

B1: GST tagged CspZ (residue 20 to 236 of CspZ from B. burgdorferi strain B31) (other)
chain: DVSRLNQRNINELKIFVEKAKYYSIKLDAIYNECTGAYNDIMTYSEGTFSDQSKVNQAISIFKKDNKIVNKFKELEKIIEEYKPMFLSKLIDDFAIELDQAVDNDVSNARHVADSYKKLRKSVVLAYIESFDVISSKFVDSKFVEASKKFVNKAKEFVEENDLIALECIVKTIGDMVNDREINSRSRYNNFYKKEADFLGAAVELEGAYKAIKQTLL
notes: also called wild type CspZ; CRASP-2; not shown: glutathione-S-transferase (GST) tag encoded by plasmid pGEX-6P1
In the case of B1, the binding result is listed as “binds”.

Values taken from patent US20240207382A1 (HEALTH RESEARCH, published 2024).
